Assay results from paper doi:10.1101/2023.02.21.529469.

Molecular target: T1, His-Lmo2795 (RpiR family regulator) (UniProt Q8Y3P0)
T1 sequence: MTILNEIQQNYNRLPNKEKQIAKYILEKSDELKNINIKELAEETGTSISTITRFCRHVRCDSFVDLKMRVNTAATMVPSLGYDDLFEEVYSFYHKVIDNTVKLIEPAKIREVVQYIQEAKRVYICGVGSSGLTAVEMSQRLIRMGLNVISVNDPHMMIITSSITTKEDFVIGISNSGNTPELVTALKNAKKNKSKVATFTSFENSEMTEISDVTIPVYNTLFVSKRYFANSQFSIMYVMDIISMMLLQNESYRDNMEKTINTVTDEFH
Test: EMSA

CGGAACACCCAACAAATTACCAATCGAATAAACTAACAAAGTCCTTTCAAGCGAAAGGACTTTTTATTTTTAACAGCAACGTCATTTTTTAAAGCTAGTTTCCGCAACTATCCACGCTAAAACATGAAAATCATTTTCATTTAATTGATATTGATAAAATCATTTTCTTATGATATAGTCTGTTTGAAAACGCATACTTTACACTGAAACACAGTATAGAGGAGGAGTATCAGTGGGCAATTCTGTTATGGAAAAAATCAAAGGTGGGTTAG (double strand) [lmo2795-nanE upstream (promoter) fragment]
binding: binds
